Test results from PMC9017343 (2022).

Experiments:
[1] = biological target: T1, SARS-CoV S trimer (ectodomain) (SARS-CoV, UniProt P59594 14-1195); assay: SPR
[2] = biological target: T1, SARS-CoV S trimer (ectodomain); assay: SPR; remark: listed apart in the source

B1: COVA1-16 (antibody, V domains shown)
VH: QVQLVQSGAEVKKPGASVKVSCKASGYTFTSYYMHWVRQAPGQGLEWMGIINSSGGSTSYAQKFQGRVTMTRDTSTSTVYMELSSLRSEDTAVYYCARPPRNYYDRSGYYQRAEYFQHWGQGTLVTVSS
VL: DIQLTQSPSSLSASVGDRVTITCQASQDISNYLNWYQQRPGKAPKLLIYDASNLETGVPSRFSGSGSGTDFTFTISSLQPEDIATYYCQQYDNPPLTFGGGTKLEIK
koff [1]: 0.0032 s⁻¹ | Kd [2]: 19.5 nM
